Experimental data: publication PMC6249601

Target: EBOV GP.10xhis
Assay: SPR
Conditions: for increase in kd values at pH 5.0: second pH 7.4

**Q.** For REGN3470, which koff (pH 5.0) is on record?
**A.** Its koff is 0.000491 s⁻¹.

**Q.** What about the t 1/2 (min) (pH 5.0) of the same substance?
**A.** Its t 1/2 (min) is 23.5 min.

**Q.** What about the koff (pH 6.0) of the same substance?
**A.** The koff was 0.000367 s⁻¹.

**Q.** What about the t 1/2 (min) (pH 6.0) of the same substance?
**A.** Its t 1/2 (min) is 31.4 min.

**Q.** What about the koff (pH 7.4) of the same substance?
**A.** Its koff is 0.000432 s⁻¹.

**Q.** And the t 1/2 (min) (pH 7.4)?
**A.** The t 1/2 (min) was 26.7 min.

**Q.** And the “increase in kd values at pH 5.0” value?
**A.** Its value is “less than 2-fold”.

**Q.** For REGN3471, which koff (pH 5.0) is on record?
**A.** Its koff is 0.000332 s⁻¹.

**Q.** What about the t 1/2 (min) (pH 5.0) of the same substance?
**A.** The t 1/2 (min) was 34.8 min.

**Q.** And the koff (pH 6.0)?
**A.** The koff was 0.000221 s⁻¹.

**Q.** And the t 1/2 (min) (pH 6.0)?
**A.** Its t 1/2 (min) is 52.3 min.

**Q.** What about the koff (pH 7.4) of the same substance?
**A.** The koff was 0.000195 s⁻¹.

**Q.** What about the t 1/2 (min) (pH 7.4) of the same substance?
**A.** Its t 1/2 (min) is 59.1 min.

**Q.** And the “increase in kd values at pH 5.0” value?
**A.** Its value is “less than 2-fold”.

**Q.** REGN3479 was tested. Which koff (pH 5.0) did it give?
**A.** Its koff is 0.000202 s⁻¹.

**Q.** What about the t 1/2 (min) (pH 5.0) of the same substance?
**A.** Its t 1/2 (min) is 57.3 min.

**Q.** And the koff (pH 6.0)?
**A.** The koff was 0.000214 s⁻¹.

**Q.** And the t 1/2 (min) (pH 6.0)?
**A.** Its t 1/2 (min) is 55.1 min.

**Q.** And the koff (pH 7.4)?
**A.** The koff was 7.83e-05 s⁻¹.

**Q.** What about the t 1/2 (min) (pH 7.4) of the same substance?
**A.** Its t 1/2 (min) is 148 min.

**Q.** What about the “increase in kd values at pH 5.0” value of the same substance?
**A.** Its value is 3-fold.
